Measurements reported in article PMC9860317, “Regulation of the DEAH/RHA helicase Prp43 by the G-patch factor Pfa1” (Proceedings of the National Academy of Sciences of the …, 2022).
“And” between values parts separate entries of the source, which are not always exact repeats. Identical values can stand only once. Each block holds one substance with its values, some of them ahead of it.

How the values were obtained:
[1] = molecular target: Chaetomium thermophilum Prp43 with fluorescence labelling sites at C170 (RecA1) and C303 (RecA2), Cy3/Cy5-labelled (Chaetomium thermophilum)
[2] = molecular target: T1, scPrp43;scPfa1(gp) (Saccharomyces cerevisiae S288c;Saccharomyces cerevisiae) (UniProt P53131+P53866); assay: smFRET (TIRF); conditions: smFRET: 50 mM Tris-HCl pH 7.5, 150 mM KCl, 3 mM MgCl2 (TIRF buffer B; imaging in TIRF buffer C), FP: 6 nM labeled ssRNA, buffer and temperature not in material
[3] = molecular target: scPrp43 (Saccharomyces cerevisiae S288c) (UniProt P53131); assay: smFRET (TIRF); conditions: smFRET: 50 mM Tris-HCl pH 7.5, 150 mM KCl, 3 mM MgCl2 (TIRF buffer B; imaging in TIRF buffer C), FP: 6 nM labeled ssRNA, buffer and temperature not in material
[4] = molecular target: T1, scPrp43;scPfa1(gp) (Saccharomyces cerevisiae S288c;Saccharomyces cerevisiae); assay: fluorescence polarization; conditions: smFRET: 50 mM Tris-HCl pH 7.5, 150 mM KCl, 3 mM MgCl2 (TIRF buffer B; imaging in TIRF buffer C), FP: 6 nM labeled ssRNA, buffer and temperature not in material
[5] = molecular target: scPrp43 (Saccharomyces cerevisiae S288c) (UniProt P53131); assay: fluorescence polarization; conditions: smFRET: 50 mM Tris-HCl pH 7.5, 150 mM KCl, 3 mM MgCl2 (TIRF buffer B; imaging in TIRF buffer C), FP: 6 nM labeled ssRNA, buffer and temperature not in material

ATP turnover (kcat) of the Prp43–Pfa1(gp) complex with ssRNA, coupled enzymatic assay [1]: 9.6 s⁻¹ | ATP turnover (kcat) of the Prp43–Pfa1(gp) complex without ssRNA, coupled enzymatic assay (Prp43 alone: kcat = 0.01 s^-1) [1]: 0.4 s⁻¹
Substance: G-patch motif of Chaetomium thermophilum Pfa1 (domain or fragment)

Substance: GCGCCUACGCCACCAGCUCCGUAGGCGCAGGAGCGCCUACGGAGCUGGUGGCGUAGGCGCAAAAAAAAAAAAAAAUAAAAAAAAAAAAAAAAAAAA [smFRET stem-loop RNA probe with 3' overhang]
binding signal ([2]; 0.5 uM Prp43, 2.5 uM Pfa1(gp), nucleotide-free): 88 % bound | binding signal (% bound (plus 20% partially unwound)) ([2]; 2 uM ATP, table row label cut, matched by FRET values): 55 | binding signal ([2]; ADP, koff 0.45 s-1): 52 % bound | binding signal ([3]; 0.5 uM Prp43, 2 mM AMPPNP): 36 % bound | binding signal ([3]; 5 uM Prp43, apo (main text gives 24%)): 21 % bound

Substance: ssRNA (fluorescence polarization)
Kd ([4]; nucleotide-free, with Pfa1(gp)): 30 nM | Kd [4]: 80 nM and 500 nM | Kd ([5]; ADP): > 100000 nM | Kd ([5]; AMPPNP): 400 nM | Kd ([5]; nucleotide-free): 7000 nM
